Reference: IntAct's records for PubMed 16154084

B1: Interferon regulatory factor 3 (Homo sapiens), Q14653 (parent)
chain: MGTPKPRILPWLVSQLDLGQLEGVAWVNKSRTRFRIPWKHGLRQDAQQEDFGIFQAWAEATGAYVPGRDKPDLPTWKRNFRSALNRKEGLRLAEDRSKDPHDPHKIYEFVNSGVGDFSQPDTSPDTNGGGSTSDTQEDILDELLGNMVLAPLPDPGPPSLAVAPEPCPQPLRSPSLDNPTPFPNLGPSENPLKRLLVPGEEWEFEVTAFYRGRQVFQQTISCPEGLRLVGSEVGDRTLPGWPVTLPDPGMSLTDRGVMSYVRHVLSCLGGGLALWRAGQWLWAQRLGHCHTYWAVSEELLPNSGHGPDGEVPKDKEGGVFDLGPFIVDLITFTEGSGRSPRYALWFCVGESWPQDQPWTKRLVMVKVVPTCLRALVEMARVGGASSLENTVDLHISNSHPLSLTSDQYKAYLQDLVEGMDFQGPGES

Variants of: B1
Settings: with cbp_human CREBBP

Effect of a mutation on the interaction, disrupting interaction:
MGTPKPRILPWLVSQLDLGQLEGVAWVNKSRTRFRIPWKHGLRQDAQQEDFGIFQAWAEATGAYVPGRDKPDLPTWKRNFRSALNRKEGLRLAEDRSKDPHDPHKIYEFVNSGVGDFSQPDTSPDTNGGGSTSDTQEDILDELLGNMVLAPLPDPGPPSLAVAPEPCPQPLRSPSLDNPTPFPNLGPSENPLKRLLVPGEEWEFEVTAFYRGRQVFQQTIACPEGLRLVGSEVGDRTLPGWPVTLPDPGMSLTDRGVMSYVRHVLSCLGGGLALWRAGQWLWAQRLGHCHTYWAVSEELLPNSGHGPDGEVPKDKEGGVFDLGPFIVDLITFTEGSGRSPRYALWFCVGESWPQDQPWTKRLVMVKVVPTCLRALVEMARVGGASSLENTVDLHISNSHPLSLTSDQYKAYLQDLVEGMDFQGPGES [S221A]
MGTPKPRILPWLVSQLDLGQLEGVAWVNKSRTRFRIPWKHGLRQDAQQEDFGIFQAWAEATGAYVPGRDKPDLPTWKRNFRSALNRKEGLRLAEDRSKDPHDPHKIYEFVNSGVGDFSQPDTSPDTNGGGSTSDTQEDILDELLGNMVLAPLPDPGPPSLAVAPEPCPQPLRSPSLDNPTPFPNLGPSENPLKRLLVPGEEWEFEVTAFYRGRQVFQQTISCPEGLRLVGSEVGDRTLPGWPVTLPDPGMSLTDRGVMSYVRHVLSCLGGGLALWRAGQWLWAQRLGHCHTYWAVSEELLPNSGHGPDGEVPKDKEGGVFDLGPFIVDLITFTEGSGRSPRYALWFCVGESWPQDQPWTKRLVMVKVVPTALRAAVEAARVGGASSLENTVDLHISNSHPLSLTSDQYKAYLQDLVEGMDFQGPGES [C371A;L375A;M378A]
MGTPKPRILPWLVSQLDLGQLEGVAWVNKSRTRFRIPWKHGLRQDAQQEDFGIFQAWAEATGAYVPGRDKPDLPTWKRNFRSALNRKEGLRLAEDRSKDPHDPHKIYEFVNSGVGDFSQPDTSPDTNGGGSTSDTQEDILDELLGNMVLAPLPDPGPPSLAVAPEPCPQPLRSPSLDNPTPFPNLGPSENPLKRLLVPGEEWEFEVTAFYRGRQVFQQTISCPEGLRLVGSEVGDRTLPGWPVTLPDPGMSLTDRGVMSYVRHVLSCLGGGLALWRAGQWLWAQRLGHCHTYWAVSEELLPNSGHGPDGEVPKDKEGGVFDAGAFAADAATFTEGSGRSPRYALWFCVGESWPQDQPWTKRLVMVKVVPTCLRALVEMARVGGASSLENTVDLHISNSHPLSLTSDQYKAYLQDLVEGMDFQGPGES [L322A;P324A;I326A;V327A;L329A;I330A]
MGTPKPRILPWLVSQLDLGQLEGVAWVNKSRTRFRIPWKHGLRQDAQQEDFGIFQAWAEATGAYVPGRDKPDLPTWKRNFRSALNRKEGLRLAEDRSKDPHDPHKIYEFVNSGVGDFSQPDTSPDTNGGGSTSDTQEDILDELLGNMVLAPLPDPGPPSLAVAPEPCPQPLRSPSLDNPTPFPNLGPSENPLKRLLVPGEAWAFEVTAFYRGRQVFQQTISCPEGLRLVGSEVGDRTLPGWPVTLPDPGMSLTDRGVMSYVRHVLSCLGGGLALWRAGQWLWAQRLGHCHTYWAVSEELLPNSGHGPDGEVPKDKEGGVFDLGPFIVDLITFTEGSGRSPRYALWFCVGESWPQDQPWTKRLVMVKVVPTCLRALVEMARVGGASSLENTVDLHISNSHPLSLTSDQYKAYLQDLVEGMDFQGPGES [E201A;E203A]
